Settings in all cases: protein: recombinant; tags: His-tag (Ni-NTA purified); copies: 1;1;1;1
The target of data set [1] is T1, NELF-EΔRRM complex (NELFΔRRM) (UniProt Q9H3P2;Q8WX92;Q8IXH7;P18615 1-528;1-628;1-590;1-261+333-380, internal_change). Briefly: EMSA (NELF release from PEC); apparent Kd; NELF in PEC on N1; 20 mM Na-HEPES pH 7.4, 100 mM NaCl, 25 mM KCl, 3 mM MgCl2, 2 mM DTT; assembly 30 °C, eRNA incubation 15-20 min at room temperature; 3.5% native PAGE 0.5x TBE at 4 °C; PEC about 0.1 µM NELF 0.15 µM.
T1 sequence (Q9H3P2 whole entry, stated change not applied, chain 1 of 4): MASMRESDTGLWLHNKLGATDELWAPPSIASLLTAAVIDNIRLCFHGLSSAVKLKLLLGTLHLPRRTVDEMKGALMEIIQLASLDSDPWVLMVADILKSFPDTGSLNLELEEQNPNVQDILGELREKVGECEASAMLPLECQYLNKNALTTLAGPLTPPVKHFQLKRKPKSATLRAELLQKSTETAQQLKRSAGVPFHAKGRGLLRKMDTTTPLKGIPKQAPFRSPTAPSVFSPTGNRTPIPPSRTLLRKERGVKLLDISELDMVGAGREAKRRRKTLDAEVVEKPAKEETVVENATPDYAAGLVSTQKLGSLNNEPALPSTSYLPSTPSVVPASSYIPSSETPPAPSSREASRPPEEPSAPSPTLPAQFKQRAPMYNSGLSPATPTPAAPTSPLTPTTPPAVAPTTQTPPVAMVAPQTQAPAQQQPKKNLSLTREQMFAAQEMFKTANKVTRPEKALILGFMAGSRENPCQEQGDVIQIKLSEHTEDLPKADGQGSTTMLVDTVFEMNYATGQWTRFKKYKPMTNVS
T1 sequence (Q8WX92 other isoform, or with tags, fused parts or gaps | mutant, chain 2 of 4): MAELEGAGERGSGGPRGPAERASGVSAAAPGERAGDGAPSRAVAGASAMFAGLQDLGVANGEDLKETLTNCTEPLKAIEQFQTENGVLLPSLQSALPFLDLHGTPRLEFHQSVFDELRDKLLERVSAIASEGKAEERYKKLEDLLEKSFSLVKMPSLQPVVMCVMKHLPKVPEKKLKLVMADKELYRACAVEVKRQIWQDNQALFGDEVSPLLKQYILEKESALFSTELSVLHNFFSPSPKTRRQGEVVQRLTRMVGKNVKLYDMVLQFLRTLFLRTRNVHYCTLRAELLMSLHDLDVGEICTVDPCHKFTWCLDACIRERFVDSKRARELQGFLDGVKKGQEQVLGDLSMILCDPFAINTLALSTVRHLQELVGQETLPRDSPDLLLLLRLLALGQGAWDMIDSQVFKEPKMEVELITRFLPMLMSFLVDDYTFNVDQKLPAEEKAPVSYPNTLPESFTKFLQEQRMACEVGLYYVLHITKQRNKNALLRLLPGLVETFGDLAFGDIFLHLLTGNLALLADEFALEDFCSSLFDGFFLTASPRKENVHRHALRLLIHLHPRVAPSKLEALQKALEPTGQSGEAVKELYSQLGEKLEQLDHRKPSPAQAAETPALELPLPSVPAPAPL
T1 sequence (Q8IXH7 whole entry, stated change not applied, chain 3 of 4): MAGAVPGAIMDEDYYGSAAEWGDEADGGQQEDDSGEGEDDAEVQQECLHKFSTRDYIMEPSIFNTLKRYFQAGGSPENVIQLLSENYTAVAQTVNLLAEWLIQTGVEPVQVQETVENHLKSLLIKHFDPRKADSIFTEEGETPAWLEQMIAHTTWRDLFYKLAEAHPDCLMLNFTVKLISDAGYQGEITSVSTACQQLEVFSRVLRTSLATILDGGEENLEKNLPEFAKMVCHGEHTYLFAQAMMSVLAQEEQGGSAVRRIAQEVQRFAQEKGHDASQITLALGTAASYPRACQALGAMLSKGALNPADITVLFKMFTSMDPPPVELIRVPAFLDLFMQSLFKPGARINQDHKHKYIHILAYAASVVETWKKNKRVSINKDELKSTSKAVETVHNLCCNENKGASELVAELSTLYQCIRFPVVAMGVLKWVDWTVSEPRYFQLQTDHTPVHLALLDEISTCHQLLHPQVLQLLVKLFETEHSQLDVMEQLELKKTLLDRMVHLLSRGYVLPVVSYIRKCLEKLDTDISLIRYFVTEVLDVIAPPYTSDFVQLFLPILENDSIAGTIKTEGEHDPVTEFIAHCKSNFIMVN
T1 sequence (P18615 other isoform, or with tags, fused parts or gaps | mutant, chain 4 of 4): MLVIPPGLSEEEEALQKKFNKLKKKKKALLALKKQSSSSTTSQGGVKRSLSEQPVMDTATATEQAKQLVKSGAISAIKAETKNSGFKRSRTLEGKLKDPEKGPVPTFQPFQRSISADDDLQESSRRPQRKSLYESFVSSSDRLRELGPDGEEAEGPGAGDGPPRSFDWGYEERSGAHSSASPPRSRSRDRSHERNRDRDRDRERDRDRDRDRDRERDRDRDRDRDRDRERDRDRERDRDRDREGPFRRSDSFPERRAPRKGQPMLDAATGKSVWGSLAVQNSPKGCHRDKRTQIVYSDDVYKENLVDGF

Data set [2] has as its target NELF double mutant (patch + ΔRRM) (UniProt Q9H3P2;Q8WX92;Q8IXH7;P18615 1-528;1-628;1-590;1-261+333-380, R291Q;K315M;K371M;K372M;K374M;K384M;K388M;R419Q;R506Q;internal_change). As to the kind of experiment: EMSA (NELF release from PEC); large molar excess; 20 mM Na-HEPES pH 7.4, 100 mM NaCl, 25 mM KCl, 3 mM MgCl2, 2 mM DTT; assembly 30 °C, eRNA incubation 15-20 min at room temperature; 3.5% native PAGE 0.5x TBE at 4 °C; PEC about 0.1 µM NELF 0.15 µM. A general note: In EMSA bound probe runs differently from free probe, usually more slowly.

Data set [3] concerns the target T1, NELF-EΔRRM complex (NELFΔRRM). As to the kind of experiment: EMSA (NELF release from PEC); release not abolished; 20 mM Na-HEPES pH 7.4, 100 mM NaCl, 25 mM KCl, 3 mM MgCl2, 2 mM DTT; assembly 30 °C, eRNA incubation 15-20 min at room temperature; 3.5% native PAGE 0.5x TBE at 4 °C; PEC about 0.1 µM NELF 0.15 µM.

Sequence of NELF double mutant (patch + ΔRRM) (Q9H3P2 whole entry, stated change not applied, chain 1 of 4): as the sequence (Q9H3P2 whole entry, stated change not applied, chain 1 of 4) above
Sequence of NELF double mutant (patch + ΔRRM) (Q8WX92 other isoform, or with tags, fused parts or gaps with the stated changes, chain 2 of 4): as the sequence (Q8WX92 other isoform, or with tags, fused parts or gaps | mutant, chain 2 of 4) above
Sequence of NELF double mutant (patch + ΔRRM) (Q8IXH7 whole entry R291Q/K315M/K371M/K372M/K374M/K384M/K388M/R419Q/R506Q, chain 3 of 4): as the sequence (Q8IXH7 whole entry, stated change not applied, chain 3 of 4) above, with R291Q, K315M, K371M, K372M, K374M, K384M, K388M, R419Q, R506Q counted along it
Sequence of NELF double mutant (patch + ΔRRM) (P18615 other isoform, or with tags, fused parts or gaps with the stated changes, chain 4 of 4): as the sequence (P18615 other isoform, or with tags, fused parts or gaps | mutant, chain 4 of 4) above

B1: Arc eRNA 1-100 (structured_RNA)
RNA: AAAACACAGCCGCCAGGGUGGGGGUGGCAGCCUUGAACGCCACCCUCUAACUGGCAUGGGCAUCUGAACUCUCAGCUCUGGGGGUGUCUCAUCGGCCAGC
For the molecule B1, in data set [1], the Kd is 7.8 µM.

B2: Nr4a1-(b) eRNA 1-200 (structured_RNA)
RNA: AGUAGGGGCAUGGCUCGCCCGAGGCUCGGUGCUGCCCCGCCGCCCGCCGCGUUCCUUCCGGCUUGGUGUUCCGGUGGCGGGACCAGGGAAGGGAAGCUCGGGCCAAAUCCGGUCUCGGGCGAGGUGACAGAAAUUUGGAAUCUGACACCGGAGGAUGGCUGAGCUCCGGCUCCUCUGGGAGUGCAAUUACGGACUUCGCA
Turning to B2, in data set [2], the binding result is “no binding”.

B3: Arc eRNA 1-200 (structured_RNA)
RNA: AAAACACAGCCGCCAGGGUGGGGGUGGCAGCCUUGAACGCCACCCUCUAACUGGCAUGGGCAUCUGAACUCUCAGCUCUGGGGGUGUCUCAUCGGCCAGCUGGCAGUAGCCCCCCCAACCCCACCCCUGAUGGAGAACUGCUCCUGUAUGAUCCAGCCCAGUGGGCGCACAGGGAGUUGGUAGGUGGGCACUCAGACUGG
For the molecule B3, the Kd in data set [1] was 0.33 µM. Besides, in data set [2], the binding result was “no binding”.

B4: Nr4a1-(a) eRNA 1-100 (structured_RNA)
RNA: GCGGUGAGAGUGAUUUUGUAACUCUAAAGUUACAGAGGGUUUUGUUGUGUUUUUAAUCAAGAGCCCUGGUUUUGAUUUGUGGGUAAUCUUUCUUUAAACC
On to B4, for which the binding result in data set [3] was “binds”.

B5: Nr4a1-(a) eRNA 1-200 (structured_RNA)
RNA: GCGGUGAGAGUGAUUUUGUAACUCUAAAGUUACAGAGGGUUUUGUUGUGUUUUUAAUCAAGAGCCCUGGUUUUGAUUUGUGGGUAAUCUUUCUUUAAACCUCGCCCAUUUCCGGCCUGGUGACCUGGGCCACUUUCUCAUGUUGACCCAGAUGAUCCUCAGUAGCAAGAACAAAAGGACAACAGAUGUGGAAACACUCAA
B5: the binding result in data set [2] is listed as “no binding”.

Values taken from PMC9068813, “Enhancer RNAs stimulate Pol II pause release by harnessing multivalent interactions to NELF”.
